The values below come from IntAct's records for PubMed 16959574.

This experiment addresses gsk3b_human GSK3B (UniProt P49841).

Sequence of Tuberin (Rattus norvegicus (Rat)), P49816 S1389A (P49816 whole entry S1389A): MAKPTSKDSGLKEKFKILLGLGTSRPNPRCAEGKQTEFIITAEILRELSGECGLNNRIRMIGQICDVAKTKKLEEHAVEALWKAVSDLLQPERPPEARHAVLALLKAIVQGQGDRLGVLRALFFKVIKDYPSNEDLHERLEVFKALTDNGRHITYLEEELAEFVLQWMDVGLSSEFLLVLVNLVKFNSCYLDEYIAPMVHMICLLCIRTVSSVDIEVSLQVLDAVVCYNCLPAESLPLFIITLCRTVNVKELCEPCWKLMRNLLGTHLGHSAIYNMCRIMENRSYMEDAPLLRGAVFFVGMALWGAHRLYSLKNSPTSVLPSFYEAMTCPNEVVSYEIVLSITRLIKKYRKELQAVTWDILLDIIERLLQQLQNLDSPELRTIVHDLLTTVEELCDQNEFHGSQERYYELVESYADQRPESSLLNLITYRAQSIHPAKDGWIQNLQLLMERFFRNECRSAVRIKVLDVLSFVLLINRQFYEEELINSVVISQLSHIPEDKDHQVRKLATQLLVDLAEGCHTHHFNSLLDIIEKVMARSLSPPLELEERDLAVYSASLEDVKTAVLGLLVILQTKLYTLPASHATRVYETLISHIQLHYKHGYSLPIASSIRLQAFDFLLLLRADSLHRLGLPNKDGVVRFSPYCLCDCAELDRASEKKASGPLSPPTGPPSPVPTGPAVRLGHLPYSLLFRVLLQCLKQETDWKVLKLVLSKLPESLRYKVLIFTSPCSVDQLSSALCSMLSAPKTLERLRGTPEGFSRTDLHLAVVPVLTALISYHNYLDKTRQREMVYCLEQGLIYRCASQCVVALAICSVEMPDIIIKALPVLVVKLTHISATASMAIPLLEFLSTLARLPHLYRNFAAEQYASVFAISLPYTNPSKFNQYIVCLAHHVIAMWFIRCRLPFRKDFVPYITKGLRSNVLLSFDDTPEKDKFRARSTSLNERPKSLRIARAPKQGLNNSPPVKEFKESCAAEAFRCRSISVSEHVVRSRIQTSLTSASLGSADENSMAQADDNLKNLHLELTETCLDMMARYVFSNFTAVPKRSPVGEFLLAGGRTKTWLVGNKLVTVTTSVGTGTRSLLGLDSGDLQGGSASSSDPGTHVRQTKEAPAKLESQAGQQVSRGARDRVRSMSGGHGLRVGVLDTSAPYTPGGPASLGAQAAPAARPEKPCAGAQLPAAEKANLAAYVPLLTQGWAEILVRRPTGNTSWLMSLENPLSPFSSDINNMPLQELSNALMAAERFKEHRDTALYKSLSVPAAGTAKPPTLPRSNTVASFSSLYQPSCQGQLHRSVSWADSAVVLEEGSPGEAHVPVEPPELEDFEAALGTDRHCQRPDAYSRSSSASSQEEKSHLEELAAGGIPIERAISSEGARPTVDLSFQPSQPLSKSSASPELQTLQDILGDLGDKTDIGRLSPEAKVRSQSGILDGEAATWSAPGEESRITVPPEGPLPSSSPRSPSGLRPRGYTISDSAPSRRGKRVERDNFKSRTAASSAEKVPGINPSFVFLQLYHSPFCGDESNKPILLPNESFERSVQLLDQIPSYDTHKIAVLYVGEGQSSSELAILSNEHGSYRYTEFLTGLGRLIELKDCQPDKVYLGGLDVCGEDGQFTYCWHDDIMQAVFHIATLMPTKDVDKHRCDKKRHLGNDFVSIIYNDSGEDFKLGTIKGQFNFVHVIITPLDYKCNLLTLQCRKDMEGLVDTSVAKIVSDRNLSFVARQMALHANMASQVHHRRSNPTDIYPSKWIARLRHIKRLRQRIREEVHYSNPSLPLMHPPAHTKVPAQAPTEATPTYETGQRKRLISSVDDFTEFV
Sequence of gsk3b_human GSK3B (P49841 whole entry, looked up): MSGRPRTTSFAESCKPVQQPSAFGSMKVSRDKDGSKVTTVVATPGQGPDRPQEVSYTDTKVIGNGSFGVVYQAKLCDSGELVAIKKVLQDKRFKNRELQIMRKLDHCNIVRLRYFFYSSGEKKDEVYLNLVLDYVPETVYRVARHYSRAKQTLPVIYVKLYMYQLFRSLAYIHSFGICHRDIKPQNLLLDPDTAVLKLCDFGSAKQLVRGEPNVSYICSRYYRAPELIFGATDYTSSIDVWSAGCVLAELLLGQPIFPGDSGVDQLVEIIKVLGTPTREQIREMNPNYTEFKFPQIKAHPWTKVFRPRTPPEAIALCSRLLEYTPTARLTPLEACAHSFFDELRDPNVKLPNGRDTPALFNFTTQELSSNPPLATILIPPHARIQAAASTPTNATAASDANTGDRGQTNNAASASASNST

On to “Tuberin (Rattus norvegicus (Rat)), P49816 S1389A”, for which the “effect of a mutation on the interaction” value is listed as “disrupting interaction”.
